Numbered stars: 1 amine (or outer) side, 2 acyl side, 3 side chain; on linkers, the order of the positions; unused ones are H or OH. Bridge positions count the residues as written; N and C are the ends. Side chains are listed from the residue outwards. Ends that are not written are not given here. * marks the point of attachment. C20 diacid = O=C(O)CCCCCCCCCCCCCCCCCCC(=O)*; γGlu = O=C(O)[C@H](CCC(=O)[*:2])N[*:1]

Six molecules from patent US20140087995A1 (published 2014) can be followed below.

The target of assay [1] is T1, human amylin receptor (amylin 3(a) receptor: human calcitonin receptor with RAMP-3) (human, UniProt P30988 25-474; O60896 24-148).
T1 construct: whole, on cells; Assay used cell membranes of the Amylin 3(a)/CRE-luc BHK cells, not intact cells; also called hAmylin-R; hAmylinR
T1 sequence (looked up) 1: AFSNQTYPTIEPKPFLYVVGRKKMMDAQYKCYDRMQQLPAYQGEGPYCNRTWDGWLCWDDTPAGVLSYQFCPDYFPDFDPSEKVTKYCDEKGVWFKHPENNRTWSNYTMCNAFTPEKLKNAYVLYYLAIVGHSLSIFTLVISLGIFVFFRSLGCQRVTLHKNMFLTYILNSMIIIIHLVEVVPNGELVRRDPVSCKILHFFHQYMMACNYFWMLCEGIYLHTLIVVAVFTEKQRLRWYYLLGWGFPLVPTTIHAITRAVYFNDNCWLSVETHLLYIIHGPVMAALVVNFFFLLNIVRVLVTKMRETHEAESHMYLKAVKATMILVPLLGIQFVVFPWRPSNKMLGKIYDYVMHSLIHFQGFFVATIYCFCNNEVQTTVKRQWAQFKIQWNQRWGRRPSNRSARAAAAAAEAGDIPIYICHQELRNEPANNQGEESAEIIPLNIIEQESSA
T1 sequence (looked up) 2: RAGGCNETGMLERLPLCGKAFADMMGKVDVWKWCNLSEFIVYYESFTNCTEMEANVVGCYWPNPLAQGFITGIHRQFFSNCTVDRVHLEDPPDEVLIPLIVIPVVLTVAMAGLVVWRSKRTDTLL
Put plainly: SPA competition with 125I-rat amylin on membranes of BHK cells with human calcitonin receptor and RAMP-3 (Assay V). Put shortly: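 Membranes from BHK Amylin 3(a)/CRE-luc cells (35 ng/μL final) were mixed with SPA beads and test compounds in 50 mM Hepes pH 7.4 with 1 mM CaCl2, 5 mM MgCl₂, 0.1% OA and 0.02% Tween20. Incubation ran 120 min at 25° C with shaking; IC₅₀ came from one-site competition fitting.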

Assay [2] deals with T2, human calcitonin receptor (human, UniProt P30988 25-474).
T2 construct: whole, on cells; Assay used cell membranes, not intact cells; also called hCTR; hCT
T2 sequence (looked up): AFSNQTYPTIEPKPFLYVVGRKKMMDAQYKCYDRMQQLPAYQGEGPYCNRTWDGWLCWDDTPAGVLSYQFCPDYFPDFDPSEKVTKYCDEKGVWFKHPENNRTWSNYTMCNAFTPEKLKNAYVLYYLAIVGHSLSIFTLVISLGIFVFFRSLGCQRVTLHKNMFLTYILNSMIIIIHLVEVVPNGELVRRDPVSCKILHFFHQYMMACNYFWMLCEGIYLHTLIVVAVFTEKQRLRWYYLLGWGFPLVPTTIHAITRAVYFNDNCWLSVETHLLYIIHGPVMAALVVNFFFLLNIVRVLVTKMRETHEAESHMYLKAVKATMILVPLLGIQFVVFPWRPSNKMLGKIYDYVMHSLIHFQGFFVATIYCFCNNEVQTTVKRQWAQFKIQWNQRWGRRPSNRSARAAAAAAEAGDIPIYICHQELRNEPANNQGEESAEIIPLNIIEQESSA
Nature of the assay: ratio IC50 hCTR / IC50 hAmylin-R (reference: human amylin receptor), SPA competition assays. The gist of the method:
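Scintillation proximity competition binding on cell membranes at 35 ng/μL with SPA beads, in 50 mM Hepes pH 7.4, 1 mM CaCl2, 5 mM MgCl₂, 0.1% OA, 0.02% Tween20. Incubated 120 min at 25° C with shaking. IC₅₀ from one-site competition fit.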

The target in assay [3] is T2, human calcitonin receptor. Nature of the assay: SPA competition with 125I-calcitonin on membranes of BHK cells with human calcitonin receptor (Assay VII). Put shortly: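 BHK hCTR membranes 35 ng/μL + SPA beads 0.05 mg/well; buffer 50 mM Hepes pH 7.4, 1 mM CaCl2, 5 mM MgCl₂, 0.1% OA, 0.02% Tween20. 120 min, 25° C., shaking. Scintillation count; IC50 by one-site binding competition.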

B1: N^ε1-[(4S)-4-carboxy-4-[[(4S)-4-carboxy-4-(19-carboxynonadecanoylamino)butanoyl]amino]butanoyl]-[Glu14,Arg17,Pro21,Pro27,Arg35]-h-amylin (peptide)
peptide: K([γGlu-γGlu-C20 diacid])CNTATCATQRLAEFLRHSSPNFGAIPSSTNVGSRTY-NH2
modifications: disulfide 2-7; N-terminus assumed
SMILES: CC[C@H](C)[C@H](NC(=O)[C@H](C)NC(=O)CNC(=O)[C@H](Cc1ccccc1)NC(=O)[C@H](CC(N)=O)NC(=O)[C@@H]1CCCN1C(=O)[C@H](CO)NC(=O)[C@H](CO)NC(=O)[C@H](Cc1c[nH]cn1)NC(=O)[C@H](CCCNC(=N)N)NC(=O)[C@H](CC(C)C)NC(=O)[C@H](Cc1ccccc1)NC(=O)[C@H](CCC(=O)O)NC(=O)[C@H](C)NC(=O)[C@H](CC(C)C)NC(=O)[C@H](CCCNC(=N)N)NC(=O)[C@H](CCC(N)=O)NC(=O)[C@@H](NC(=O)[C@H](C)NC(=O)[C@@H]1CSSC[C@H](NC(=O)[C@@H](N)CCCCNC(=O)CC[C@H](NC(=O)CC[C@H](NC(=O)CCCCCCCCCCCCCCCCCCC(=O)O)C(=O)O)C(=O)O)C(=O)N[C@@H](CC(N)=O)C(=O)N[C@@H]([C@@H](C)O)C(=O)N[C@@H](C)C(=O)N[C@@H]([C@@H](C)O)C(=O)N1)[C@@H](C)O)C(=O)N1CCC[C@H]1C(=O)N[C@@H](CO)C(=O)N[C@@H](CO)C(=O)N[C@H](C(=O)N[C@@H](CC(N)=O)C(=O)N[C@H](C(=O)NCC(=O)N[C@@H](CO)C(=O)N[C@@H](CCCNC(=N)N)C(=O)N[C@H](C(=O)N[C@@H](Cc1ccc(O)cc1)C(N)=O)[C@@H](C)O)C(C)C)[C@@H](C)O
notes: also called compound 89
B1: the IC50 is 1.16 nM in assay [1] and 32.5 nM in assay [3]. Moreover, in assay [2], the “Ratio hCT/hAmylin binding” value amounted to 28.

B2: N^ε1-[(4S)-4-carboxy-4-[[(4S)-4-carboxy-4-(19-carboxynonadecanoylamino)butanoyl]amino]butanoyl]-[Glu14,Arg17,Pro21,Pro27,His34,Glu35]-h-amylin (peptide)
peptide: K([γGlu-γGlu-C20 diacid])CNTATCATQRLAEFLRHSSPNFGAIPSSTNVGHETY-NH2
modifications: disulfide 2-7; N-terminus assumed
SMILES: CC[C@H](C)[C@H](NC(=O)[C@H](C)NC(=O)CNC(=O)[C@H](Cc1ccccc1)NC(=O)[C@H](CC(N)=O)NC(=O)[C@@H]1CCCN1C(=O)[C@H](CO)NC(=O)[C@H](CO)NC(=O)[C@H](Cc1c[nH]cn1)NC(=O)[C@H](CCCNC(=N)N)NC(=O)[C@H](CC(C)C)NC(=O)[C@H](Cc1ccccc1)NC(=O)[C@H](CCC(=O)O)NC(=O)[C@H](C)NC(=O)[C@H](CC(C)C)NC(=O)[C@H](CCCNC(=N)N)NC(=O)[C@H](CCC(N)=O)NC(=O)[C@@H](NC(=O)[C@H](C)NC(=O)[C@@H]1CSSC[C@H](NC(=O)[C@@H](N)CCCCNC(=O)CC[C@H](NC(=O)CC[C@H](NC(=O)CCCCCCCCCCCCCCCCCCC(=O)O)C(=O)O)C(=O)O)C(=O)N[C@@H](CC(N)=O)C(=O)N[C@@H]([C@@H](C)O)C(=O)N[C@@H](C)C(=O)N[C@@H]([C@@H](C)O)C(=O)N1)[C@@H](C)O)C(=O)N1CCC[C@H]1C(=O)N[C@@H](CO)C(=O)N[C@@H](CO)C(=O)N[C@H](C(=O)N[C@@H](CC(N)=O)C(=O)N[C@H](C(=O)NCC(=O)N[C@@H](Cc1c[nH]cn1)C(=O)N[C@@H](CCC(=O)O)C(=O)N[C@H](C(=O)N[C@@H](Cc1ccc(O)cc1)C(N)=O)[C@@H](C)O)C(C)C)[C@@H](C)O
For the molecule B2, the IC50 in assay [1] was 0.525 nM; in assay [3], 15.2 nM. Besides, the “Ratio hCT/hAmylin binding” value in assay [2] came out at 29.1.

B3: N^ε1-[(4S)-4-carboxy-4-[[(4S)-4-carboxy-4-(19-carboxynonadecanoylamino)butanoyl]amino]butanoyl]-[Glu14,Arg17,Pro21,Pro27,Pro34,Arg35]-h-amylin (peptide)
peptide: K([γGlu-γGlu-C20 diacid])CNTATCATQRLAEFLRHSSPNFGAIPSSTNVGPRTY-NH2
modifications: disulfide 2-7; N-terminus assumed
SMILES: CC[C@H](C)[C@H](NC(=O)[C@H](C)NC(=O)CNC(=O)[C@H](Cc1ccccc1)NC(=O)[C@H](CC(N)=O)NC(=O)[C@@H]1CCCN1C(=O)[C@H](CO)NC(=O)[C@H](CO)NC(=O)[C@H](Cc1c[nH]cn1)NC(=O)[C@H](CCCNC(=N)N)NC(=O)[C@H](CC(C)C)NC(=O)[C@H](Cc1ccccc1)NC(=O)[C@H](CCC(=O)O)NC(=O)[C@H](C)NC(=O)[C@H](CC(C)C)NC(=O)[C@H](CCCNC(=N)N)NC(=O)[C@H](CCC(N)=O)NC(=O)[C@@H](NC(=O)[C@H](C)NC(=O)[C@@H]1CSSC[C@H](NC(=O)[C@@H](N)CCCCNC(=O)CC[C@H](NC(=O)CC[C@H](NC(=O)CCCCCCCCCCCCCCCCCCC(=O)O)C(=O)O)C(=O)O)C(=O)N[C@@H](CC(N)=O)C(=O)N[C@@H]([C@@H](C)O)C(=O)N[C@@H](C)C(=O)N[C@@H]([C@@H](C)O)C(=O)N1)[C@@H](C)O)C(=O)N1CCC[C@H]1C(=O)N[C@@H](CO)C(=O)N[C@@H](CO)C(=O)N[C@H](C(=O)N[C@@H](CC(N)=O)C(=O)N[C@H](C(=O)NCC(=O)N1CCC[C@H]1C(=O)N[C@@H](CCCNC(=N)N)C(=O)N[C@H](C(=O)N[C@@H](Cc1ccc(O)cc1)C(N)=O)[C@@H](C)O)C(C)C)[C@@H](C)O
notes: also called compound 110
As for B3, the IC50 in assay [1] turned out to be 0.326 nM; in assay [3], 17.5 nM. Moreover, the “Ratio hCT/hAmylin binding” value in assay [2] amounted to 53.6.

Regarding K([γGlu-γGlu-C20 diacid])CNTATCATQRLAEFLRHSSPNFGAIPSSTNVGPHTY-NH2 (disulfide 2-7 (inferred)), the IC50 in assay [1] came to 0.377 nM; in assay [3], 10.3 nM. Also, the “Ratio hCT/hAmylin binding” value in assay [2] was 27.3.

Regarding K([γGlu-γGlu-C20 diacid])CNTATCATQRLAEFLRHSSPNFGAILSSTPVGPETY-NH2 (disulfide 2-7 (inferred)), the results for the IC50 in assay [1] and in assay [3] were 0.069 nM and 1.56 nM, respectively. For the same molecule, the “Ratio hCT/hAmylin binding” value in assay [2] was determined as 22.6.

B4: N^ε1-[(4S)-4-carboxy-4-[[(4S)-4-carboxy-4-(19-carboxynonadecanoylamino)butanoyl]amino]butanoyl]-[Glu14,Arg17,Pro21,Pro27,His34]-h-amylin (peptide)
peptide: K([γGlu-γGlu-C20 diacid])CNTATCATQRLAEFLRHSSPNFGAIPSSTNVGHNTY-NH2
modifications: disulfide 2-7; N-terminus assumed
SMILES: CC[C@H](C)[C@H](NC(=O)[C@H](C)NC(=O)CNC(=O)[C@H](Cc1ccccc1)NC(=O)[C@H](CC(N)=O)NC(=O)[C@@H]1CCCN1C(=O)[C@H](CO)NC(=O)[C@H](CO)NC(=O)[C@H](Cc1c[nH]cn1)NC(=O)[C@H](CCCNC(=N)N)NC(=O)[C@H](CC(C)C)NC(=O)[C@H](Cc1ccccc1)NC(=O)[C@H](CCC(=O)O)NC(=O)[C@H](C)NC(=O)[C@H](CC(C)C)NC(=O)[C@H](CCCNC(=N)N)NC(=O)[C@H](CCC(N)=O)NC(=O)[C@@H](NC(=O)[C@H](C)NC(=O)[C@@H]1CSSC[C@H](NC(=O)[C@@H](N)CCCCNC(=O)CC[C@H](NC(=O)CC[C@H](NC(=O)CCCCCCCCCCCCCCCCCCC(=O)O)C(=O)O)C(=O)O)C(=O)N[C@@H](CC(N)=O)C(=O)N[C@@H]([C@@H](C)O)C(=O)N[C@@H](C)C(=O)N[C@@H]([C@@H](C)O)C(=O)N1)[C@@H](C)O)C(=O)N1CCC[C@H]1C(=O)N[C@@H](CO)C(=O)N[C@@H](CO)C(=O)N[C@H](C(=O)N[C@@H](CC(N)=O)C(=O)N[C@H](C(=O)NCC(=O)N[C@@H](Cc1c[nH]cn1)C(=O)N[C@@H](CC(N)=O)C(=O)N[C@H](C(=O)N[C@@H](Cc1ccc(O)cc1)C(N)=O)[C@@H](C)O)C(C)C)[C@@H](C)O
notes: also called compound 87
With B4, the IC50 in assay [1] was 0.633 nM; in assay [3], 22.5 nM. In assay [2], the “Ratio hCT/hAmylin binding” value was found to be 35.6.

The IC50 is the point on the concentration scale where inhibition reaches its midpoint.
